Experimental data published in PMC12931233.

Key:
[1] = immunoblot of endogenous CD47, MHCC97-H and HCCLM3; settings: control: matched control (untreated/DMSO, scramble, vector)
[2] = cell-surface CD47 by flow cytometry and immunofluorescence; settings: glycan changed form; control: scramble / vector
[3] = CHX chase, rescued MHCC97-H; half-life; settings: glycan changed form; control: scramble / vector, WT CD47 rescued cells
[4] = IP and ubiquitin immunoblot
[5] = CHX chase immunoblot, 293T; half-life; settings: glycan lost
[6] = CHX chase immunoblot, reconstituted MHCC97-H; half-life; settings: glycan lost; control: WT CD47 reconstituted cells
[7] = immunoblot, reconstituted MHCC97-H; settings: glycan lost; control: WT CD47 reconstituted cells
[8] = Transwell co-culture with BMDCs, flow cytometry; settings: glycan lost; control: CD47 WT reconstituted Hepa1-6
[9] = ubiquitin immunoblot, reconstituted Hepa1-6; settings: glycan lost; control: WT CD47 reconstituted Hepa1-6
[10] = Transwell chemotaxis; CCR7 on DCs; settings: glycan lost; control: CD47 WT reconstituted Hepa1-6

CD47: 2F-Fuc
expression_or_secretion ([1]; glycan changed form): decreases

CD47: FUT8 ablation
expression_or_secretion [2]: decreases

CD47: FUT8 depletion
degradation_or_half_life [3]: decreases

CD47: FUT8 overexpression
expression_or_secretion [2]: increases | degradation_or_half_life [3]: increases

CD47: HA-FUT8 WT overexpression
other: ubiquitination level ([4]; glycan changed form, control: untreated / vector): decreases

CD47: HA-FUT8 overexpression
expression_or_secretion ([1]; glycan changed form): increases

CD47: N23Q
degradation_or_half_life ([5]; control: Flag-CD47 WT): no change | other: ubiquitination level ([4]; glycan lost, control: WT CD47): no change

CD47: N34Q
degradation_or_half_life ([5]; control: Flag-CD47 WT): no change | other: ubiquitination level ([4]; glycan lost, control: WT CD47): no change

CD47: N50Q
degradation_or_half_life ([5]; control: Flag-CD47 WT): no change | other: ubiquitination level ([4]; glycan lost, control: WT CD47): no change

CD47: N73Q
degradation_or_half_life ([5]; control: Flag-CD47 WT): no change | other: ubiquitination level ([4]; glycan lost, control: WT CD47): no change

CD47: N111A
degradation_or_half_life [6]: decreases | expression_or_secretion [7]: decreases

CD47: N111Q
degradation_or_half_life [6]: decreases | expression_or_secretion [7]: decreases | degradation_or_half_life ([5]; control: Flag-CD47 WT): decreases | other: ubiquitination level ([4]; glycan lost, control: WT CD47): increases

CD47: N111T
degradation_or_half_life [6]: decreases | expression_or_secretion [7]: decreases

CD47: shFUT8
expression_or_secretion ([1]; glycan changed form): decreases

CD47: tunicamycin (TM)
degradation_or_half_life ([5]; control: DMSO): decreases | expression_or_secretion ([1]; glycan lost): decreases | other: ubiquitination level ([4]; glycan lost, control: untreated / vector): increases

B1: CD47 (murine): N109Q (protein)
parent chain: MWPLAAALLLGSCCCGSAQLLFSNVNSIEFTSCNETVVIPCIVRNVEAQSTEEMFVKWKLNKSYIFIYDGNKNSTTTDQNFTSAKISVSDLINGIASLKMDKRDAMVGNYTCEVTELSREGKTVIELKNRTVSWFSPNEKILIVIFPILAILLFWGKFGILTLKYKSSHTNKRIILLLVAGLVLTVIVVVGAILLIPGEKPVKNASGLGLIVISTGILILLQYNVFMTAFGMTSFTIAILITQVLGYVLALVGLCLCIMACEPVHGPLLISGLGIIALAELLGLVYMKFVASNQRTIQPPRNR
other: NK cell TNF-α and GZMB expression [8]: increases | other: ubiquitination level [9]: increases | other: CD103+ DC migration and CCR7 expression [10]: increases

B2: CD47 (murine): N109T (protein)
parent chain: B1 parent chain
other: NK cell TNF-α and GZMB expression [8]: increases

B3: CD47 (murine): N109A (protein)
parent chain: B1 parent chain
other: NK cell TNF-α and GZMB expression [8]: increases
